Source: the PETadex activity labels (doi:10.1016/j.ijbiomac.2024.137732)

Legend:
[1] = substrate: gfPET; assay: Proxy for plastic degradation [Released monomer concentration (HPLC/LC-MS) (MHET+BHET+TPA)]; settings: pH 9
[2] = substrate: gfPET; assay: Proxy for plastic degradation [Released monomer concentration (HPLC/LC-MS) (TPA+MHET+BHET)]

B1: unnamed (protein)
chain: QTIEMAQSQIDKLAKIETDSLASYADSYTYDEEYFAENEPATIYYPKNLEGKVPAVIVVHGFNCKQKFLQKIPQHLSSHGFICITYTALDQKRPFQWPPGLMAAYEILRGESMRPDSPIYDHVDLDAVALVGHSMGGAGVLHTAMMPYPNGLRGKIKTVVGLNPYNGGPLMAEVGGGANDNLGDDLSHLDIPTMIVTGSYDIVAFPWKSFAFYNSLRGPAKHAFLSIDRMDHADWYFIPSEPKYPILRAILYSWLRAYLADDSEYRDYFVDRPGSSFDKYLKPLLSNTPNPLTRGGESFPPYVLSEEEDPLGTTN
Proxy for plastic degradation [1]: 2.4 µM

B2: unnamed (protein)
chain: QELQEDWWRTGKYAIEDIADPVYSLDEEYMRDTPNLYLPKGKTGKLPVVIVIHGWGGTKEQMQPTAQLLASHGMLVLNYTAVDQNQPFQWLDGLVAAYTLLEGENRRPGSKIYNRVDFQRIGLLGHSMGAAGVLHIAAMEKPNGLRGKIKTVVSMMPYHGTTSTFTDNIAGGKDKLGCDISSTPNATLIISAELDPTNEPIGGYEFYQTLKRNKRVFFSLKGAKHIDWMKERDKKYSVAMPVITAWMLTYLCGETQYESYFREGGHYFEKWVRETLKGNVKVGRGEFPAFEIKEP
Proxy for plastic degradation [1]: 4 µM

B3: unnamed (protein)
chain: QELQENWWSNGKYAIEDVADPVYSFDEEYMKDVPNIYLPIGKTGKLPVVIVVHGWAAYKEQMHDTAQLLASHGMLVLVYTAMDQNQPFQWLDGIIAAYTLLEGENRRPGSKIHNRVDFQRIGLLGHSMGGTGVLFSAAMEKPNGLRGKIKTVVSLMPYHGTTNFISDAVAGGKDKLGCDVSATPNATLIISGEVDEVNEPIGGYEFYQTLTQNKRVFFSMKGTHHNDWRNKEGKESENYPIVMPVVSSWMLAYLCGERQYESFFKEGGLYFEKWIRPTLKGNVKVGRGEFPAFEIKEP
Proxy for plastic degradation [1]: 4 µM

B4: unnamed (protein)
chain: ASEQSTKNITNVTTESDVSVYRDLMLVAGKYVFYPADFETTTKKYPVVTWANGSWCPIQTYLPIIYGLVKAGYIVVADTDLLTDDGKSTVDSVSYIIKQNKNKNSMFYKRINTKQIGSTGHSLGGQAAVNASAKDSRIKAIVSLAGKSVADEAAKVTVPALYLSGTLDMIVPSKDYVYPSYKASKGPAAYASFNNMVHFGVWIAPGNYVKYTVAWFDVYLKGDKSKLSMFKKGGDLSTDDFWINYESKNL
Proxy for plastic degradation ([2]; pH 6): 2.5 µM
Proxy for plastic degradation ([2]; pH 7): 5 µM
Proxy for plastic degradation ([2]; pH 8): 10 µM
Proxy for plastic degradation ([2]; pH 9): 15 µM
Proxy for plastic degradation ([2]; pH 9, 25 °C): 4 µM
Proxy for plastic degradation ([2]; pH 9, 30 °C): 6.5 µM
Proxy for plastic degradation ([2]; pH 9, 35 °C): 12 µM
Proxy for plastic degradation ([2]; pH 9, 37 °C): 16 µM
Proxy for plastic degradation ([2]; pH 9, 40 °C): 20 µM
Proxy for plastic degradation ([2]; pH 9, 45 °C): 11 µM
Proxy for plastic degradation ([2]; pH 10): 25 µM
Proxy for plastic degradation ([2]; pH 11): 50 µM
Proxy for plastic degradation [1]: 17.5 µM

B5: unnamed (protein)
chain: NADQFVQFESAAVKPTQFQERNARARGEAVNAVPGTPLQGYLTRPQGEGPFPAIVILHGCAGIHPSVKETWPERLASWGYVVLVVDSFSTRGIQNTCNNLLVDRVYDAYGALEFLSNYSFVDPKRIAVMGFSAGGIATLEAVQFGGAERLMEHKFKAAVAYYPICKAANGDMAVPTLVLVGDLDDWSPAEQCRTMMKQRSGAGSPVQLNVYKGAHHAFDAPEFKTGFEAYGHWIEYNGIAADQSVSDVHAFLRGVFGN
Proxy for plastic degradation [1]: 3.8 µM
